Assay [1] deals with T1, human G-CSF receptor (human, UniProt Q99062 25-836).
T1 sequence (looked up): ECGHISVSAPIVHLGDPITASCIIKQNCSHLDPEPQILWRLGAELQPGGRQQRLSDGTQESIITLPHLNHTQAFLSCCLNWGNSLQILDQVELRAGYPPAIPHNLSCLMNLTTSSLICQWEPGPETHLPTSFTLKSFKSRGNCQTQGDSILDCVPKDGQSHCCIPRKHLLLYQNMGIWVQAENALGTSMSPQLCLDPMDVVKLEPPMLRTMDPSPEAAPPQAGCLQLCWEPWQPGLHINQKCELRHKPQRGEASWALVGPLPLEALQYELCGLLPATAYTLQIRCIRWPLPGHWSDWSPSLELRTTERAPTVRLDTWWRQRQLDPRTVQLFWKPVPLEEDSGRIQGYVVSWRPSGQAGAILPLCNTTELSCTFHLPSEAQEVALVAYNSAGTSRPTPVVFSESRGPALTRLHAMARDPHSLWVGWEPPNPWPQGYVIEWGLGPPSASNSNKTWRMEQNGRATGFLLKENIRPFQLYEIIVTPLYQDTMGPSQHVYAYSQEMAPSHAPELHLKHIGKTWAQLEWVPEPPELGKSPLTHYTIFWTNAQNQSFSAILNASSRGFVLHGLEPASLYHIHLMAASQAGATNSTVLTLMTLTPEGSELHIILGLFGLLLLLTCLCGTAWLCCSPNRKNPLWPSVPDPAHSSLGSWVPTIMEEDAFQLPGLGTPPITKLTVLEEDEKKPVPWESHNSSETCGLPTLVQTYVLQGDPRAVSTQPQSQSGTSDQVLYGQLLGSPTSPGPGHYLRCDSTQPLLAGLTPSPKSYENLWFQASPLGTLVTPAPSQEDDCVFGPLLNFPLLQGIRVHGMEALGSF
The assay is described as follows: cell-based or functional assay.

Assay [2] deals with T1, human G-CSF receptor. Nature of the assay: cell-based or functional assay. This is another data set of the same source.

Data on nine molecules can be found in patent EP2133098A1 (Maxygen Holdings Ltd, dated 2009).

Substitutions are numbered along the chain they refer to. Numbers in names are those of the source.

B1: non-conjugated hG-CSF (Neupogen) (ligand)
chain: TPLGPASSLPQSFLLKCLEQVRKIQGDGAALQEKLCATYKLCHPEELVLLGHSLGIPWAPLSSCPSQALQLAGCLSQLHSGLFLYQGLLQALEGISPELGPTLDTLQLDVADFATTIWQQMEELGMAPALQPTQGAMPAFASAFQRRAGGVLVASHLQSFLEVSYRVLRHLAQP
With B1, the “EC50, BaF3/hGCSF-R/pfos-lux luciferase assay” value with human G-CSF receptor [1] came to 0.03 nM.

B2: SPA-PEG 5000-conjugated hG-CSF K16R K34R K40R Q70K Q90K T105K (ligand)
chain: B1 chain with K16R, K34R, K40R, Q70K, Q90K, T105K
modifications: SPA-PEG 5000 on the available PEGylation sites
With B2, the “EC50 (% of hG-CSF) conjugated to SPA-PEG 5000” value (shortened to “EC50 (% of hG-CSF) conjugated”) in the assay with human G-CSF receptor [2] was 2 % of hG-CSF.

B3: SPA-PEG 5000-conjugated hG-CSF K16R K34R K40R Q70K Q120K (ligand)
chain: B1 chain with K16R, K34R, K40R, Q70K, Q120K
modifications: SPA-PEG 5000 on the available PEGylation sites
For the molecule B3, the “EC50 (% of hG-CSF) conjugated” value with human G-CSF receptor [2] was 15 % of hG-CSF.

B4: SPA-PEG 20000-conjugated hG-CSF K16R K34R K40R (ligand)
chain: B1 chain with K16R, K34R, K40R
modifications: SPA-PEG 20000
In the case of B4, in the assay with human G-CSF receptor [1], the “in vitro EC50 (% of non-conjugated hG-CSF (Neupogen))” value is 1 % of non-conjugated hG-CSF (Neupogen).

B5: SPA-PEG 5000-conjugated hG-CSF K16R K34R K40R (ligand)
chain: B1 chain with K16R, K34R, K40R
modifications: SPA-PEG 5000 on the available PEGylation sites
Take B5: the “in vitro EC50 (% of non-conjugated hG-CSF (Neupogen))” value in the assay with human G-CSF receptor [1] was 35 % of non-conjugated hG-CSF (Neupogen).

B6: SPA-PEG 5000-conjugated hG-CSF K16R K34R K40R Q70K Q120K T133K (ligand)
chain: B1 chain with K16R, K34R, K40R, Q70K, Q120K, T133K
modifications: SPA-PEG 5000 on the available PEGylation sites
Turning to B6, the “EC50 (% of hG-CSF) conjugated” value in the assay with human G-CSF receptor [2] was 5 % of hG-CSF.

B7: SPA-PEG 5000-conjugated hG-CSF K16R K34R K40R Q70K Q90K Q120K (ligand)
chain: B1 chain with K16R, K34R, K40R, Q70K, Q90K, Q120K
modifications: SPA-PEG 5000 on the available PEGylation sites
Consider B7, for which the “EC50 (% of hG-CSF) conjugated” value with human G-CSF receptor [2] was 10 % of hG-CSF.

B8: SPA-PEG 5000-conjugated hG-CSF K16R K34R K40R Q90K Q120K T133K (ligand)
chain: B1 chain with K16R, K34R, K40R, Q90K, Q120K, T133K
modifications: SPA-PEG 5000 on the available PEGylation sites
Consider B8, for which the “EC50 (% of hG-CSF) conjugated” value with human G-CSF receptor [2] was 5 % of hG-CSF.

B9: SPA-PEG 12000-conjugated hG-CSF K16R K34R K40R (ligand)
chain: B1 chain with K16R, K34R, K40R
modifications: SPA-PEG 12000; mainly 2 and 3 PEG groups attached
Take B9: in the assay with human G-CSF receptor [1], the “in vitro EC50 (% of non-conjugated hG-CSF (Neupogen))” value is 10 % of non-conjugated hG-CSF (Neupogen).
